Reference: US8465945B2, “Method for production and use of mite group 1 proteins” (Merck Patent GmbH, priority 1999, dated 2013)

Assays:
[1] = tested on: anti-Der f 1 MAb 6A8 (capture) and anti-Der f 1 MAb 4C1 (detection); experiment: Monoclonal Capture ELISA; format: binding
Method: (§1) Assays were carried out as follows. A microtiter plate as described in Example 5 was coated overnight at 4° C. with 100 ng/well of anti-Der f 1 protein monoclonal antibody 6A8, denoted herein as anti-Der f 1 MAb 6A8, provided by Dr. Martin Chapman. The plate was washed in the manner described above. The following proteins were then added to wells, having been diluted in Assay Buffer in a 2-fold dilution series, from 0.75 to 50 ng/well: Heska native Derf1, P. pastoris-expressed PDerf1303b, and E. coli-expressed PDerf1303c. After incubation for 1 hour at room temperature, plates were washed as described in Example 5. Then 100 μl per well of a 1:1000 dilution in Assay Buffer of biotinylated anti-Der f 1 monoclonal antibody 4C1, also denoted anti-Der f 1 MAb 4C1, provided by Dr. Martin Chapman, was added for 1 hour at room temperature. Plates were washed, streptavidin-HRP conjugate was added, and plates were developed as described in Example 5.

[2] = tested on: IgE from mite-allergic or normal human sera; experiment: ELISA, binding of IgE from human sera to coated Der f 1 proteins or mite extracts, detected with FcεR1α-biotin
[3] = tested on: IgE from mite-allergic dog sera; experiment: ELISA, binding of IgE from dog sera to coated Der f 1 proteins or mite extracts, detected with FcεR1α-biotin
Method: Native or recombinant Der f 1 proteins in 100 μl CBC buffer (50 mM sodium carbonate, pH 9.6) were coated onto wells (100 ng per well) of Immulon II microtiter plates (available from Dynex Technologies, Chantilly, Va.) by incubation at 4° C., covered, overnight. Excess fluid was removed and wells were blocked with 200 μl Assay Buffer (4% fetal calf serum (available from Summit Laboratories, Fort Collins, Colo.) in phosphate buffered saline (PBS, recipe in Sambrook, ibid.), plus 0.05% Tween-20 (available from Sigma, St. Louis, Mo.)) for one hour at room temperature. Plates were then washed for 4 cycles on an automatic plate washer (Ultrawash, available from Dynatech Laboratories) using PBS with 0.05% Tween-20. […] Control wells were treated identically except that no serum was added. Plates were then washed as described above. Biotinylated human IgE receptor alpha chain (FcεR1α-biotin) (100 μl of 1.3 ng/ml) prepared as described in U.S. Pat. No. 5,945,294, ibid., was added and incubated for one hour at room temperature. After this incubation, plates were washed as described above. Streptavidin-horseradish peroxidase conjugate (0.5 mg/ml, available from KPL Labs, Gaithersburg, Md.) was added at a 1:5000 dilution in Assay Buffer for one hour at room temperature, after which plates were washed as described above. TMB Peroxidase substrate system, 2 part (available from KPL Labs, #0-76-00), added at 100 μl per well, was used according to the manufacturer's directions. The color reaction was allowed to proceed until good color development was reached (about 10-15 min); then the reaction was stopped with 100 μl per well of 1 M phosphoric acid. Bound IgE was determined by measuring absorbance (Optical Density, or OD) at 450 nm (nanometers) using an ELISA plate reader (such as Spectramax”, Molecular Devices, Sunnyvale, Calif.). Background OD readings in the control wells were subtracted from all numbers. Results are reported in Tables 1, 2 and 3 as OD multiplied by 1000. OD numbers greater than 100 are considered to be positive for a reaction with IgE. P. pastoris-expressed proteins are denoted in the Tables as Pichia expressed proteins.

[4] = tested on: IgE from pooled mite-allergic human sera; experiment: Monoclonal Capture ELISA (Example 8B, Table 7); format: binding
Method: as §1
B. The Der f 1 proteins described in Example 8B were reacted as described in Example 6 with a pool of serum samples collected from 16 mite-allergic human patients.

B1: Heska native Derf1: Native purified Der f 1 protein, purified as described in U.S. Ser. No. 09/292,225 (protein)
chain: TSACRINSVNVPSELDLRSLRTVTPIRMQGGCGSCWAFSGVAATESAYLAYRNTSLDLSEQELVDCASQHGCHGDTIPRGIEYIQQNGVVEERSYPYVAREQRCRRPNSQHYGISNYCQIYPPDVKQIREALTQTHTAIAVIIGIKDLRAFQHYDGRTIIQHDNGYQPNYHAVNIVGYGSTQGDDYWIVRNSWDTTWGDSGYGYFQAGNNLMMIEQYPYVVIM
- OD, protein captured by MAb 6A8 and detected by MAb 4C1 ([1]; 0.75 ng protein per well): 1740 OD
- OD, protein captured by MAb 6A8 and detected by MAb 4C1 ([1]; 1.5 ng protein per well): 2043 OD
- OD, protein captured by MAb 6A8 and detected by MAb 4C1 ([1]; 2.5 ng protein per well): 2291 OD
- OD, protein captured by MAb 6A8 and detected by MAb 4C1 ([1]; 3.1 ng protein per well): 2219 OD
- OD, protein captured by MAb 6A8 and detected by MAb 4C1 ([1]; 6.25 ng protein per well): 2197 OD
- OD, protein captured by MAb 6A8 and detected by MAb 4C1 ([1]; 25 ng protein per well): 2142 OD
- OD, protein captured by MAb 6A8 and detected by MAb 4C1 ([1]; 50 ng protein per well): 2183 OD
- OD, bound IgE ([2]; Assay Number 1, serum human 1916): 51 OD multiplied by 1000
- OD, bound IgE ([2]; Assay Number 1, serum human3848): 3123 OD multiplied by 1000
- OD, bound IgE ([2]; Assay Number 1, serum human 3958): 3368 OD multiplied by 1000
- OD, bound IgE ([2]; Assay Number 1, serum human 3960): 2279 OD multiplied by 1000
- OD, bound IgE ([2]; Assay Number 1, serum human 3961): 1479 OD multiplied by 1000
- OD, bound IgE ([2]; Assay Number 1, serum human 3987): 3741 OD multiplied by 1000
- OD, bound IgE ([2]; Assay Number 1, serum human 4289): 777 OD multiplied by 1000
- OD, bound IgE ([2]; Assay Number 1, serum human 4467): 1302 OD multiplied by 1000
- OD, bound IgE ([2]; Assay Number 1, serum human 5207): 3051 OD multiplied by 1000
- OD, bound IgE ([2]; Assay Number 1, serum human pool): 1732 OD multiplied by 1000
- OD, bound IgE ([2]; Assay Number 2, serum Heska human B): 0 OD multiplied by 1000
- OD, bound IgE ([2]; Assay Number 2, serum Heska human C): 0 OD multiplied by 1000
- OD, bound IgE ([2]; Assay Number 2, serum Heska human D): 0 OD multiplied by 1000
- OD, bound IgE ([2]; Assay Number 2, serum Heska human E): 19 OD multiplied by 1000
- OD, bound IgE ([2]; Assay Number 2, serum Heska human F): 0 OD multiplied by 1000
- OD, bound IgE ([2]; Assay Number 2, serum Heska human G): 1 OD multiplied by 1000
- OD, bound IgE ([2]; Assay Number 2, serum Heska human H): 0 OD multiplied by 1000
- OD, bound IgE ([2]; Assay Number 2, serum Heska human I): 1 OD multiplied by 1000
- OD, bound IgE ([2]; Assay Number 2, serum Heska human J): 1 OD multiplied by 1000
- OD, bound IgE ([2]; Assay Number 2, serum Heska human K): 0 OD multiplied by 1000
- OD, bound IgE ([2]; Assay Number 2, serum Heska human L): 0 OD multiplied by 1000
- OD, bound IgE ([2]; Assay Number 2, serum Heska human M): 51 OD multiplied by 1000
- OD, bound IgE ([2]; Assay Number 2, serum Heska human N): 885 OD multiplied by 1000
- OD, bound IgE ([2]; Assay Number 2, serum Heska human O): 0 OD multiplied by 1000
- OD, bound IgE ([2]; Assay Number 2, serum Heska human P): 0 OD multiplied by 1000
- OD, bound IgE ([2]; Assay Number 2, serum Heska human Q): 0 OD multiplied by 1000
- OD, bound IgE ([2]; Assay Number 2, serum Heska human R): 1 OD multiplied by 1000
- OD, bound IgE ([2]; Assay Number 2, serum human 1916): 62 OD multiplied by 1000
- OD, bound IgE ([2]; Assay Number 2, serum human 3848): 2362 OD multiplied by 1000
- OD, bound IgE ([2]; Assay Number 2, serum human 3958): 2235 OD multiplied by 1000
- OD, bound IgE ([2]; Assay Number 2, serum human 3960): 1308 OD multiplied by 1000
- OD, bound IgE ([2]; Assay Number 2, serum human 3961): 784 OD multiplied by 1000
- OD, bound IgE ([2]; Assay Number 2, serum human 3987): 2664 OD multiplied by 1000
- OD, bound IgE ([2]; Assay Number 2, serum human 4289): 589 OD multiplied by 1000
- OD, bound IgE ([2]; Assay Number 2, serum human 4467): 1051 OD multiplied by 1000
- OD, bound IgE ([2]; Assay Number 2, serum human 5207): 2746 OD multiplied by 1000
- OD, bound IgE ([2]; Assay Number 2, serum human pool): 2599 OD multiplied by 1000
- OD, bound IgE ([3]; Assay Number 1, serum dog pool): 750 OD multiplied by 1000
- OD, bound IgE ([3]; Assay Number 1, serum dog-1): 3 OD multiplied by 1000
- OD, bound IgE ([3]; Assay Number 1, serum dog-2): 2245 OD multiplied by 1000
- OD, bound IgE ([3]; Assay Number 1, serum dog-3): 2839 OD multiplied by 1000
- OD, bound IgE ([3]; Assay Number 2, dog sera pool A 146): 449 OD multiplied by 1000
- OD, bound IgE ([3]; Assay Number 2, dog sera pool KS338): 101 OD multiplied by 1000

B2: PDerf1303d: P. pastoris HCY288-expressed Der f 1 lacking N-glycosylation site, asparagine 133 replaced by glutamine (SEQ ID NO:38) (protein, listed as Dermatophagoides farinae)
chain: RPASIKTFEEFKKAFNKNYATVEEEEVARKNFLESLKYVEANKGAINHLSDLSLDEFKNRYLMSAEAFEQLKTQFDLNAETSACRINSVNVPSELDLRSLRTVTPIRMQGGCGSCWAFSGVAATESAYLAYRQTSLDLSEQELVDCASQHGCHGDTIPRGIEYIQQNGVVEERSYPYVAREQRCRRPNSQHYGISNYCQIYPPDVKQIREALTQTHTAIAVIIGIKDLRAFQHYDGRTIIQHDNGYQPNYHAVNIVGYGSTQGDDYWIVRNSWDTTWGDSGYGYFQAGNNLMMIEQYPYVVIM
- OD, Monoclonal Capture ELISA ([4]; 0.39 ng protein per well): 1380 OD
- OD, Monoclonal Capture ELISA ([4]; 0.78 ng protein per well): 1963 OD
- OD, Monoclonal Capture ELISA ([4]; 1.55 ng protein per well): 2626 OD
- OD, Monoclonal Capture ELISA ([4]; 3.1 ng protein per well): 2913 OD
- OD, Monoclonal Capture ELISA ([4]; 6.25 ng protein per well): 2991 OD
- OD, Monoclonal Capture ELISA ([4]; 12.5 ng protein per well): 3037 OD
- OD, Monoclonal Capture ELISA ([4]; 25 ng protein per well): 3007 OD
- OD, bound IgE ([2]; Table 6, pool of sera from 16 mite-allergic human patients, 6.2 ng protein per well): 88 OD
- OD, bound IgE ([2]; Table 6, pool of sera from 16 mite-allergic human patients, 12.5 ng protein per well): 347 OD
- OD, bound IgE ([2]; Table 6, pool of sera from 16 mite-allergic human patients, 25 ng protein per well): 591 OD
- OD, bound IgE ([2]; Table 6, pool of sera from 16 mite-allergic human patients, 50 ng protein per well): 779 OD
- OD, bound IgE ([2]; Table 6, pool of sera from 16 mite-allergic human patients, 100 ng protein per well): 1097 OD
- OD, bound IgE ([2]; Table 6, pool of sera from 16 mite-allergic human patients, 200 ng protein per well): 1448 OD
